Test results: paper PMC5053885

The substances below were run against Karyopherin-β2 (human) (UniProt Q92973) (assay: ITC).
Sequence of UniProt Q92973 (Q92973 9-898): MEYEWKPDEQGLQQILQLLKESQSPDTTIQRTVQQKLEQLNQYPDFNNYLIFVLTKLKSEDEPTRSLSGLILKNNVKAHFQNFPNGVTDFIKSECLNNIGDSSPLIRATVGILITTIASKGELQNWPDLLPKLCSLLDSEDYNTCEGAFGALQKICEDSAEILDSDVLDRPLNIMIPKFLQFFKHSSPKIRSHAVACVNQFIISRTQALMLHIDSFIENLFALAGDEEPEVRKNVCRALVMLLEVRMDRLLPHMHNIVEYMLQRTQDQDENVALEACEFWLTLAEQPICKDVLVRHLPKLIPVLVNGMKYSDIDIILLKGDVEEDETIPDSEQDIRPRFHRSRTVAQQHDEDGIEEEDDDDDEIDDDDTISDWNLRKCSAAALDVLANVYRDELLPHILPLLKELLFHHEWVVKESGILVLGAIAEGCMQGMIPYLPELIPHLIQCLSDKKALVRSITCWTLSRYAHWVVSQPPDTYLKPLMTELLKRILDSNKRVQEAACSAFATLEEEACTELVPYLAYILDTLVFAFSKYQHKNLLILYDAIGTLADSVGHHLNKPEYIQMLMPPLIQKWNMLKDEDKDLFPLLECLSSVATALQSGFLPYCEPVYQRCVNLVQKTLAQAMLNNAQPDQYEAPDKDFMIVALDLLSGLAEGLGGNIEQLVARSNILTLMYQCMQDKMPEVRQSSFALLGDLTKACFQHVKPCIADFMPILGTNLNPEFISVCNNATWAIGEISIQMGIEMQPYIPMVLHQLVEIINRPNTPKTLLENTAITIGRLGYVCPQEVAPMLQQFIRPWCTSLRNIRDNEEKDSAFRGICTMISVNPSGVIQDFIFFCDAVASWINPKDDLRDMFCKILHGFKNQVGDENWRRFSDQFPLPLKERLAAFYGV

Substance	Kd
MBP-H3 Tail(1–47) wild-type (from UniProt P68431 2-48) (domain or fragment)	77.1 nM
MBP-H3 Tail(1–47) R17A (from UniProt P68431 2-48) (domain or fragment)	389 nM
MBP-H3 Tail(1–47) K23A (from UniProt P68431 2-48) (domain or fragment)	148 nM
MBP-H3 Tail(1–47) K23A, R26A, K27A (from UniProt P68431 2-48) (domain or fragment)	119 nM

Continued by falling Kd, values first:

Kd	Substance
133 nM	MBP-H3 Tail(1–47) K27A (from UniProt P68431 2-48) (domain or fragment)
122 nM	MBP-H3 Tail(1–47) R26A (from UniProt P68431 2-48) (domain or fragment)
120 nM	MBP-H3 Tail(1–47) K18A (from UniProt P68431 2-48) (domain or fragment)
